These results are taken from patent publication US20140322218A1 (Amgen, published 2014).

Changes are numbered by the printed parent chain. Names may count otherwise.

The labels stand for the following.
B1: hu anti-<huCDH19> 4A9 VH::huIgG1z / 4A9 VL::huLLC-C1 (Ab ID 13589) (antibody, V domains shown)
VH: QVQLQESGPGLVKPSETLSLTCTVSGGSISGYYWSWIRQPPGKGLEWFAYFSYSGSTNYNPSLKSRVTLSVDTSKNQFSLKLSSVTAADTAVYYCARNWAFHFDFWGQGTLVTVSS
VL: QSVLTQPPSVSGAPGQRVTISCTGSSSNIGTGYAVHWYQQFPGTAPKLLIYGNNNRPSGVPDRFSGSKSGTSASLAITGLQAEDEADYYCQSYDSRLSGWVFGGGTKLTVLG
notes: Recombinant fully human IgG1
B2: hu anti-<huCDH19> 26D1.1 VH::huIgG1z / 26D1.1 VL::huLLC-C2 (Ab ID 13882) (antibody, V domains shown)
VH: QVQLVQSGAEVKKPGASVKVSCKASRYTFTSYYMSWVRQAPGQGLEWMGIIHPSGGDTTYAQKFQGRVTMTGDTSTSTVYMELSSLRSEDTAVYYCARGGIKLWLHFDYWGQGTLVTVSS
VL: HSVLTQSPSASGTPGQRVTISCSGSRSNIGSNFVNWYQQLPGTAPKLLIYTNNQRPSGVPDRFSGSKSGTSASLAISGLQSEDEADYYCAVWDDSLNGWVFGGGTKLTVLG
B3: hu anti-<huCDH19> 25F8.1 (1-469)(F90Y) VH::huIgG1z / 25F8.1 (1-235)(K45Q,S102A,D111E) VL::huLLC-C2 (Ab ID 14096) (antibody, V domains shown)
VH: B2 VH with R26G, M34I, S35H, H52N, D57S, T59R, G72R, K102Q
VL: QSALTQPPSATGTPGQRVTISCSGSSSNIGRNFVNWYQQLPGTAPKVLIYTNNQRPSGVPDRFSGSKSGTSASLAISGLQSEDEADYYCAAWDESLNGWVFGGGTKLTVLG
notes: Engineered variant of 25F8
B4: hu anti-<huCDH19> 4B10 VH::huIgG1z / 4B10 VL::huKLC (Ab ID 13590) (antibody, V domains shown)
VH: QVQLVESGGGVVQPGRSLRLSCAASGFTFSSYDMHWVRQAPGKGLEWVAVISYDGTNEYYADSVKGRFTISRDTSKNTLYLQMNSLRAEDTAVYYCARERYFDWSFDYWGQGTLVSVSS
VL: EIVLTQSPGTLSLSPGERATLSCRASQSVSNTYLAWYHQRPGQAPRLLIYGASSRATGIPDRFSGSGSGTDFALTISSLEPEDFAVYYCQQYSNSWTFGQGTKVEIKR
B5: anti-CDH19 antibody 2G6 (Ab ID 13588) (antibody, human IgG1, lambda, V domains shown)
VH: QVQLVESGGGVVQPGRSLRLSCAASGFTFSSYGMHWVRQAPGKGLEWVAFIWYDGSNKYYADSVKDRFTISRDNSKNTLYLQMKSLRAEDTAVYYCARRAGIIGTIGYYYGMDVWGQGTTVTVSS
VL: SYELTQPPSVSVSPGQTASITCSGDRLGEKYTCWYQQRPGQSPLLVIYQDTKRPSGIPERFSGSNSGNTATLTISGTQAMDEADYYCQAWDSSTVVFGGGTKLTVLG
B6: hu anti-<huCDH19> 23A10.3 (1-474)(L92Q) VH::huIgG1z / 23A10.3 (1-231)(C42S) VL::huLLC-C2 (Ab ID 14077) (antibody, V domains shown)
VH: B5 VH with S31R, M34I, F50V, D66G, K84N, T91S, I103P, I106T
VL: B5 VL with T32V, C33S, R38K, L44I, T51N, R53W
notes: Engineered variant of 23A10
B7: anti-CDH19 antibody 4A2 (Ab ID 13592) (antibody, human IgG1, kappa, V domains shown)
VH: QVQLQESGPGLVKPSQTLSLTCTVSGGSISSSGYYWSWIRQHPGKGLEWIGYIYYTGSAYYNPSLKSRVTISVDTSKNQFSLKLSSVTAADTAVYYCARDGSSGWYFQYWGQGTLVTVSS
VL: EIVLTQSPGTLSLSPGERATLSCRASRNISSSYLAWYQQKPGQAPRLLIYGPSSRATGIPDRFSGSGSGTDFTLTISRLEPEDFTVYYCQQYGSSFTFGPGTKVDIKR

The first experiment addresses T1, rhCDH19(1-43)::FLAG::rhCDH19(44-65)::caCDH19(65-770), on 293T cells (rhesus macaque/dog chimera).
T1 construct: Entry holds leader (1-43), Flag tag and CDH19 part; leader left out; also called rh EC1a (dog backbone)
The experiment can be described thus: FACS, transfected 293T. (In general: In flow cytometry, cells or beads pass a laser one at a time.)
Procedure: (§1) The following binding assay was completed in presence of 2 mM CaCl2. […] Cells were then washed one time and the amount of cell associated Alexa647-labelled Ab was quantitated by flow cytometry. The experiments included mock transfected controls.
For the molecule B1, the binding result is “no binding (tested: 5 ug/ml)”.
The same measure, in the same setting: the value for B2 was “binds”.

In a further experiment the target is T2, rhCDH19(1-43)::FLAG::rhCDH19(44-141)::raCDH19(140-247)::rhCDH19(250-772), on 293T cells (rhesus macaque/rat chimera, UniProt Q9H159 44-772 (human entry)).
T2 construct: Entry holds leader (1-43), Flag tag and CDH19 part; leader left out; also called ra EC2 (rhesus backbone)
T2 chain: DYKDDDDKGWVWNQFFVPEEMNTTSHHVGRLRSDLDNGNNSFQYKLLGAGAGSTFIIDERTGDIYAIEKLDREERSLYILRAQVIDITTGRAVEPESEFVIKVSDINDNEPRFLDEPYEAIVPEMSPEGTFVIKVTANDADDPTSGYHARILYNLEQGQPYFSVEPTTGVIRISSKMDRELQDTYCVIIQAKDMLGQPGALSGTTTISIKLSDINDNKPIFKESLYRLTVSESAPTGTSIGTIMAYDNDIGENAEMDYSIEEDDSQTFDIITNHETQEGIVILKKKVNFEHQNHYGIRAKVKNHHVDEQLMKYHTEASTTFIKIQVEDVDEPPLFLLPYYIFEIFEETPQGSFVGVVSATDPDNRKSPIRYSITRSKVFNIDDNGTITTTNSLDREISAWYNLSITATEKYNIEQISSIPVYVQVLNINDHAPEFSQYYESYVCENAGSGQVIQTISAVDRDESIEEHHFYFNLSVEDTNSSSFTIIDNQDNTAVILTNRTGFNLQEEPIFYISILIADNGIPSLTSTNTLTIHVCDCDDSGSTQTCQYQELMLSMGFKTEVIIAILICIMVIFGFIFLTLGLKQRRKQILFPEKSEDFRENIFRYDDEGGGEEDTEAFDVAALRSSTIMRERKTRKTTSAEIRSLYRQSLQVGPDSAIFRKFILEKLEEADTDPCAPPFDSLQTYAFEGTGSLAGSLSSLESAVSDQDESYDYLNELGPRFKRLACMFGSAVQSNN
Briefly: FACS, transfected 293T.
Procedure: as §1
On to B1, for which the binding result is on record as “no binding (tested: 5 ug/ml)”.
Still for that read-out and setting: the entry for B3 is “no binding (tested: 5 ug/ml)”; for B2 it is “no binding (tested: 5 ug/ml)”.

In the next experiment the target is T3, Human Cadherin-19 (human, UniProt Q9H159 44-772).
T3 construct: Residues 1-43 are named as the native leader in the construct designations and are left out; also called human CDH19; huCDH19
The experiment can be described thus: FACS, endogenous and recombinant human CDH19.
Procedure: FACS binding assays were performed to evaluate the binding of the anti-Cadherin-19 receptor specific antibodies to endogenous Cadherin-19 receptor expressed on the CHL-1 tumor cell lines.
FACs assays were performed by incubating hybridoma supernatants with 10,000 to 25,000 cells in PBS/2% Fetal bovine serum/2 mM Calcium Chloride at 4° C. for one hour followed by two washes with PBS/2% Fetal bovine serum/2 mM Calcium Chloride. Cells were then treated with florochrome-labeled secondary antibodies at 4° C. followed by one wash. The cells were resuspended in 50 μl of PBS/2% FBS and antibody binding was analyzed using a FACSCalibur™ instrument.
Take B4: the binding result is recorded as “binds”.
Still for that read-out and setting: the entry for B5 is “binds”.

The target of a further experiment is T4, muCDH19(44-770), Flag-tagged, on 293T cells (mouse).
T4 construct: also called Mu EC1-5
T4 chain: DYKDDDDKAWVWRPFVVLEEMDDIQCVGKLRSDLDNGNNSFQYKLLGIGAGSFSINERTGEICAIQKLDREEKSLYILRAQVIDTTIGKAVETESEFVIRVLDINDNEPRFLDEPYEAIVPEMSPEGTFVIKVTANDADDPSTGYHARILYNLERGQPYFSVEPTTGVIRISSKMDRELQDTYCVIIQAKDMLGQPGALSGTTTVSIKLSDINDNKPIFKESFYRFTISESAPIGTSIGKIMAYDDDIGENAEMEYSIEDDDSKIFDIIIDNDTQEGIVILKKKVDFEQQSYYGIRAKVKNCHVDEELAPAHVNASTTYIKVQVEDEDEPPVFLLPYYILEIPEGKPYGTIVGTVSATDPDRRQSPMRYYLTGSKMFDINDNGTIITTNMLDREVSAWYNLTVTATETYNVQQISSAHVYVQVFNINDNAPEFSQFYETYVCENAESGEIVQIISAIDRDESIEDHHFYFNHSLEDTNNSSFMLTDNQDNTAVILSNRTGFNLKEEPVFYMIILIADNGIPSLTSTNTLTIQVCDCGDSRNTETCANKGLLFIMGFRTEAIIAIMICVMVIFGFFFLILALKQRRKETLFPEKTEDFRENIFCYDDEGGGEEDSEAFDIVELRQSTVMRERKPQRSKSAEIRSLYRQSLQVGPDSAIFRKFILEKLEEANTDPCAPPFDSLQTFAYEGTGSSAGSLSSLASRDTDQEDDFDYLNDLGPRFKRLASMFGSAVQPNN
The experiment can be described thus: FACS, transfected 293T.
Take B4: the binding result is on record as “no binding (tested: 5 ug/ml)”.
Same read-out and setting: the value for B1 was “no binding (tested: 5 ug/ml)”.
Same read-out and setting: the entry for B2 is “no binding (tested: 5 ug/ml)”; for B5 it is “binds”.
On the same count and under the same terms, the entry for B6 is “binds”.

The next experiment addresses T5, muCDH19(44-139)::huCDH19(142-364)::muCDH19(363-770), Flag-tagged, on 293T cells (human/mouse chimera).
T5 construct: also called Hu EC2-3; C137847
Briefly: FACS, transfected 293T.
Source text: (§2) The experiment included assaying the anti-CDH19 antibodies against mouse Cadherin19 to determine suitability for binning on these human/mouse chimeras.
Turning to B4, the binding result is reported as “binds”.
In the case of B5, the binding result was “binds”.

A further experiment deals with T6, muCDH19(44-247)::huCDH19(250-364)::muCDH19(363-770), Flag-tagged, on 293T cells (human/mouse chimera).
T6 construct: also called Hu EC3; C137911
Briefly: FACS, transfected 293T.
Source text: as §2
With B4, the binding result is “binds”.
Same read-out and setting: the entry for B5 is “binds”.

The target in another experiment is T7, Cyno Cadherin-19 (cynomolgus monkey (Macaca fascicularis), UniProt Q9H159 44-772 (human entry)).
T7 construct: also called cyno CDH19; cynomologous CDH-19
T7 chain: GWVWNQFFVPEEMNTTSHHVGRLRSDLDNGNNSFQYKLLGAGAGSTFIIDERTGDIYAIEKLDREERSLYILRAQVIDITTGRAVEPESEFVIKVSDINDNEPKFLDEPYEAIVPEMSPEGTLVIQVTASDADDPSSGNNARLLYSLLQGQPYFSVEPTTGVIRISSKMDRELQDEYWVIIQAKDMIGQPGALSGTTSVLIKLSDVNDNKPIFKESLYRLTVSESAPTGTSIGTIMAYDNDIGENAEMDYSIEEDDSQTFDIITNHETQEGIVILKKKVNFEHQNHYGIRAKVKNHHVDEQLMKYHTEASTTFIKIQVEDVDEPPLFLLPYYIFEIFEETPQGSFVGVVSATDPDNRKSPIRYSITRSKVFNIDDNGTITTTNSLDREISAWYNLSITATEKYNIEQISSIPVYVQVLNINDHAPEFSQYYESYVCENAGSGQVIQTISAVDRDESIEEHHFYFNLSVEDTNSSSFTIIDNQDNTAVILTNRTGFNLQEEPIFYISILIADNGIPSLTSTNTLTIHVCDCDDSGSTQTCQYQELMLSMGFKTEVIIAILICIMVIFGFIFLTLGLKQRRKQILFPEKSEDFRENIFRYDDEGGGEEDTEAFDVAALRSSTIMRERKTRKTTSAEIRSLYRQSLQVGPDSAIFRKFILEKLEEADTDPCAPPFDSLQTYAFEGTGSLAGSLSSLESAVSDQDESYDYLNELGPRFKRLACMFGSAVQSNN
Briefly: FACS, recombinant cyno CDH19.
B7: the binding result was “binds”.
Same read-out and setting: the value for B4 was “binds”.
As for B1, the binding result is “binds”.
B2: the binding result is listed as “binds”.
The same measure, in the same setting: the entry for B5 is “binds”.
